In patent publication US20150351390A1, “COMPOSITIONS AND METHODS FOR AUXIN-ANALOG CONJUGATION” (PIONEER HI-BRED INTERNATIONAL, INC., priority 2012, published 2015):

B1: AIGH3-14: GH3 protein, accession EFH47823 (protein, listed as Arabidopsis lyrata)
chain: MLPKFDPTDQKACLSLLEDVTTNVKQIQDSVLEAILSRNARTEYLSGFLNGQVDKQSFKKNLPVVTYEDIRPYIDRIANGEPSDLICDRPISVLLTSSGTSGGVPKLIPLTTDELEQRISFASLYRPLLYKYVEGIRERKSFMLYFVTRESETASGILVRTMITCVLKSLKPSNSFIWDQTQISPHGISTCSDTTQSMYCQLLCGLLQRDNVGRLGAPFASSFLKIIKFLEDHWPEFCSNIRTGRLSDWITDPQCVSGIGKFLTAPDPELASLIEQECSQTSWEAIVKRLWPKAKCIEAIVTGTMAQYIPLLEFYSGGLPVISTFYGSSECFIGLNLNPLSKPSDVSYTIIPCMAYFEFLEVGKDYQETGHDPAEKPVVVDLVDVKIGHDYEPVVTTFAGLYRYRLGDVLRVTGFYNNAPQFHFVGRQKVVLSIDMDKTYEEDLLKAVTNAKLLLEPHDLMLMDFTSRVDSSSFPGHYVLYWELGSKVKDAKLELDPNVLEECCFTIEESLDAVYRKGRKNDKNIGPLEIKVVKSGAFEELMNLFLSRGSSVSQYKTPRSVTNEEAVKILESNVVSEFLSRKTPSWELHELYSNR
B2: ZmACF88044: GH3 protein, accession ACF88044 (protein)
chain: MATYEDLQPYIRRIADGDRSPILSGHPVSEFLTSSGTSAGERKLMPTIEDELNRRQLLYSLQMPVMNLYVPGMDKGKALHFLFVKSETKTPGGLAARPVLTSYYKSNHFKNRPFDAYNNYTSPTAAILCADAFQSMYAQMLCGLCQRQDVLRVGAVFASGLLRAIRFLQLNWEQLAEDIEAGSLTPRVTDPSVREAVAGILRADPELAALVRSECSKGDWAGIITRIWPSTKYLDVIVTGAMAQYIPTLKYYSGGLPMACTMYASSECYFGLNLRPMCDPSEVSYTLMPNMCYFEFLPMDSAAASGGDASQLVDLARVEVGREYELVITTYAGLNRYRVGDVLQVTGFHNSAPQFRFVRRKNVLLSIESDKTDEAELQRAVERASALLRPHGAAVVEYTSQAYTKSIPGHYVIYWELLAKGPAGGAAVGEGTLERCCLEMEEALNTVYRQSRVADGSIGPLEIRVVRPGTFEELMDYAISRGASINQYKVPRCVTFPPIIELLDSRVVSSHFSPALPHWTPGQRSDSD
modifications: Zea mays
B3: AtGH3-12: GH3 protein, accession Q9LYU4 (protein, listed as Arabidopsis thaliana)
chain: MKPIFDINETFEKQLKDLTSNVKSIQDNLLEEIITPNTKTEYLQRFLIDRFDKELFKKNVPIVSYEDIKPYLDRVVNGESSDVISARTITGFLLSSGTSGGAQKMMPWNNKYLDNLTFIYDLRMQVITKHVKGVEEGKGMMFLFTKQESMTPSGLPARVATSSYFKSDYFKNRPSNWYYSYTSPDEVILCPNNTESLYCHLLCGLVQRDEVVRTGSIFASVMVRAIEVLKNSWEELCSNIRSGHLSNWVTDLGCQNSVSLVLGGPRPELADTIEEICNQNSWKGIVKRLWPNTKYIETVVTGSMGQYVPMLNYYCNDLPLVSTTYGSSETTFGINLDPLCKPEDVSYTFMPNMSYFEFIPMDGGDKNDVVDLEDVKLGCTYEPVVTNFAGLYRMRVGDIVLVTGFYNNAPQFKFVRRENVVLSIDSDKTNEEDLFKAVSQAKLVLESSGLDLKDFTSYADTSTFPGHYVVYLEVDTKEGEEKETAQFELDEEALSTCCLVMEESLDNVYKRCRFKDGSIGPLEIRVVRQGTFDSLMDFFISQGASTGQYKTPRCIKSGKALQVLETCVVAKFFSI
B4: AtGH3-7: GH3 protein, accession AAC00604 (protein, listed as Arabidopsis thaliana)
chain: MSLTSDLSEKSSDKMKVLEDLTSNVTQIQDNVLEEILTLNANTNYLQKFFLGSFDKESFKKNVPVVTYEDVKPYIERVVNGEPSNVISARPITGFVLSTGTSGGAQKMMPWNEKYLDNLTFMYDLRMHIISNNVKDVEKGKAMMFYFTKLESITPSGLPARVASSSYLKSNYFKNRPSNWYYSYTSPDEVTLCPDNKQNLYCHLLCGLVQRNEVTRMGSIFASVMVRAIKFLEDSWEELCSNIRSGQLSEWITDIGCRDSVSLVLGGPHPEAADTIEQICNQKCWKGIITRLWPKAKYIETIVTGSMVQYVPTLNYYSNNMLPLISTIYASSETQFGLNLNPMCKPEDVSYTFMPNVSYFEFIPVDGDKNDVVDLADVKLGCCYEAVVTNFSGLYRIRVGDILVVTGFHNKAPQFRFIRRDNVVLSIDLDKTNEDDLFKAVNNAKLTLDSSHLMLIDFTSYADISTIPGHYVVYWEVKNKNEDKKSKKHIELKEETFSECCLLMEDSLDSVYKICRFKEESVGPLEIKVVRQGTFDSLMDYFISQGASIGQYKTPRCIKSGKALEVLEENVVATFFST
B5: AtGH3-19: GH3 protein, accession AAG60122 (protein, listed as Arabidopsis thaliana)
chain: MSLSVELKDLEVLTTNAKQIQDDVLKEILTLNANTEYLKRFLDGSSDKELFKKNVPVVSYNDVKPYIERVANGEPSDVISGGTITRFVQSTGTSGGIHKIFPVNDKYIENLGYLLAVSSLITSNDKVDEKGKKMAFLYNRLESKTPSGLALSSSFTSYFMSDYFKNRSSKCNSEYTSPDQVILCPDNNQSVYCHLLCGLSQREKVVGVSATFAHALIKAINALQIYWKELSSNIRSGHVSEWITDLDCKNAVSAILGGPDPELADVIEQECSHKSWEGIITRLWPKAKFIECIVTGQMAQYIPTLDFYSNKLPIVSMVYGSSESIFGVNVDPLSKPQDVSYTFLPNISYFEFLPIDHEEDMNTIVDLVGVKLGCYYETVVTSYFGLHRYLIGDILQVTGFYNNTPQFRFVRRKNIVLSVNSEATTEQDILKGLASATLVLESSNSMLTGFTCYADISSFPGHYVFYWELKAKDVDDVVELDENVLEECCYALEESFDALYKRLRSKEGSIGALEIKVVQQGTFDSLMEYFISKGGSVAQYKTPMCINSSETLAVLEDKVIARFYSQKSPPLNL

Assay: LC-MS assay of GH3 conjugation of 2,4-D with Asp or Glu
Type: biochemical
Conditions: conjugation of 2,4-D with Asp by recombinant GH3 protein; 2,4-D-Asp product by LC-MS; 5 mM 2,4-D substrate
Experimental: (§1) To detect and monitor the formation of acyl conjugates with 2,4-D or dicamba, a sensitive LC-MS method was developed using the respective amino acid conjugate standards. […] The reaction was performed at 30° C., 105 rpm, for 3 hours in buffer containing 20 mM Tris-HCl (pH 8.0), 5 mM MgCl2, 5 mM auxin (IAA, 2,4-D or dicamba), 5 mM ATP, 5 mM Asp or Glu, 1 mM DTT and 44 to 164 μg/mL purified GH3 protein in 100 μL reaction. After 3 hours of reaction, 400 μL 100% MeOH was added to the reaction mixture for protein precipitation. The supernatant was diluted 20× in water and then analyzed by LC-MS (AB Sciex 4000 QTrap coupled with Shimadzu Nexera UHPLC) using a Phenomenex Luna 3 μm Phenyl-Hexyl (00B-4256-Y0) column. The concentration of the conjugates was calculated based on the standards. Kinetic parameters were estimated by fitting initial velocity values to the Michaelis-Menten equation.
(§2) The GH3 superfamily conjugase activity analysis of IAA, 2,4-D or dicamba with Asp or Glu was done using LC-MS to analyze the final conjugate products as described in Example 1. Protein sequences of GH3 homologs (Table 3) were obtained from public databases (NCBI, http://www.ncbi.nlm.nih.gov/) by Blast analysis of AtGH3.17 protein sequence (accession # Q9FZ87). Coding sequences were designed for optimal expression in E. coli based on the protein sequences and synthesized. Synthesized coding sequences along with N-term his-tag coding sequences were cloned into a pET24a-based E. coli expression vector. The E. coli expression vectors were transformed into OverExpress C41(DE3) cells (Lucigen) for protein expression. Recombinant E. coli strains were inoculated into 5 ml LB media supplemented with 40 mg/L kanamycin and cultured overnight at 37° C. The overnight culture (0.5 mL) was inoculated into 50 mL LB medium plus 40 mg/L kanamycin and grown at 30° C. until OD600 reached 0.6. The cultures were induced with 0.2 mM IPTG at 16° C., 230 rpm overnight. Cells were harvested by centrifugation at 7,000 rpm for 10 mins. The cell pellet from 50 mL of cell culture was frozen and thawed twice and then lysed in 800 μL lysis buffer A (150 mM NaCl, 50 mM Tris-HCl pH 8.0, 5 mM MgCl2, 10% glycerol) plus 20 mM imidazole, 1 mM DTT, 0.2 mg/ml lysozyme, 1/200 protease inhibitor cocktail (EMD set3, EDTA free) and 1/2000 endonuclease. Lysate was then centrifuged at 13,000 rpm for 30 min at 4° C. Supernatant was loaded onto 200 μL Ni-NTA columns pre-equilibrated with buffer A with 20 mM imidazole at 4° C. Each column was then washed with (1) 2×800 μL of buffer A with 10 mM imidazole, (2) 2×800 μL of buffer A with 20 mM imidazole and (3) 2×200 μL of buffer A with 50 mM imidazole. Protein was eluted with 200 μL of buffer A with 250 mM imidazole. The concentration was measured by Bradford assay. Purified protein was used in conjugation reaction assays as described in example 1.

Molecule	kcat (hrs−1) 2,4-D-Asp [h⁻¹]
B1	0.140
B2	0.000
B3	0.002
B4	0.000
B5	0.014

Same assay, conditions: conjugation of 2,4-D with Glu by recombinant GH3 protein; 2,4-D-Glu product by LC-MS; 5 mM 2,4-D substrate

Molecule	kcat (hrs−1) 2,4-D-Glu [h⁻¹]
B1	0.322
B2	0.033
B3	0.026
B4	0.000
B5	0.048

Same assay, conditions: result in words

Molecule	2,4-D conjugation activity with Asp or Glu
B2	2,4-D conjugases

Assay: LC-MS assay of GH3 conjugation of IAA with Asp or Glu
Type: biochemical
Conditions: conjugation of IAA with Asp by recombinant GH3 protein; IAA-Asp product by LC-MS
Experimental: as §1, §2

Molecule	kcat (hrs−1) IAA-Asp [h⁻¹]
B1	0.000
B2	0.000
B3	0.000
B4	0.000
B5	0.000

Same assay, conditions: conjugation of IAA with Glu by recombinant GH3 protein; IAA-Glu product by LC-MS

Molecule	kcat (hrs−1) IAA-Glu [h⁻¹]
B1	1.756
B2	0.000
B3	10.015
B4	5.361
B5	3.177

Same assay, conditions: result in words

Molecule	Conjugation of Glu to IAA	IAA conjugation activity with Asp or Glu
B1	can also conjugate Glu to IAA	–
B2	–	IAA-inactive
B3	can also conjugate Glu to IAA	–
B4	can also conjugate Glu to IAA	–
B5	can also conjugate Glu to IAA	–
